Source: US11203773B2, “Designer ribosomes and methods of use thereof for incorporating non-standard amino acids into polypeptides” (Yale University, priority 2016, dated 2021)

Columns and labels:
[1] = substrate: CSCC[C@H](N)C(=O)O; experiment: purified protein, by the assay type; settings: MetRS
[2] = substrate: N[C@@H](Cc1ccc(O)cc1)C(=O)O; experiment: Adenylation of α- and β-Tyr, coupled MESG/PNP pyrophosphate release assay; format: biochemical, E. coli; settings: other: adenylation, TyrRS
From the text: ii. Adenylation of α- and β-Tyr catalyzed by E. coli TyrRS. These reactions were monitored spectrophotometrically in a coupled assay using inorganic pyrophosphatase, 2-amino-6-mercapto-7-methylpurine ribonucleoside (MESG), and purine nucleoside phosphorylase (PNP) to monitor the rate of pyrophosphate release, according to the manufacturer's instructions (Enzcheck Pyrophosphate assay kit, Thermo Fisher Scientific). The assay measures the increase in absorbance at 360 nm due to MESG phosphorolysis, and two molecules of MESG are consumed per pyrophosphate generated. This direct assay could be employed for TyrRS because the rate of ATP hydrolysis (in the absence of amino acid substrate) was insignificant, which was not the case for the other synthetases which therefore required the more laborious pyrophosphate exchange assay described above. […] For TyrRS, kcat is the turnover number (units of reciprocal time) since the change in absorbance can be directly correlated to concentration of pyrophosphate formed.

[3] = substrate: N[C@@H](Cc1ccc(O)cc1)C(=O)O; experiment: Aminoacylation of 32P-tRNA with α- and β3-amino acids; format: biochemical, E. coli; settings: other: aminoacylation, TyrRS
[4] = substrate: N[C@@H](Cc1ccccc1)C(=O)O; experiment: purified protein, by the assay type; settings: other: adenylation, PheRS; pH 7.0; 25.0 °C
Procedure: Adenylation of α- and β-Amino Acids Catalyzed by E. coli PheRS, GlyRS, MetRS, and GluRS. […] Briefly, assay mixtures (50 μL) assembled at 25° C. contained the requisite α- or β^3-amino acid substrate (between 5 μM and 5 mM) in 100 mM HEPES (pH 7.0) containing 100 mM KCl, 15 mM MgCl2, 2 mM ATP, 0.5 mM NaPPi, and 50 μCi [^32P]-NaPPi). Reactions were initiated upon addition of enzyme (10 nM MetRS, 10 nM PheRS, or 50 nM GlyRS; 100 nM GluRS for reactions with α-Glu or 1.13 μM GluRS for reactions with β^3-Glu), incubated for various times (10 sec to 10 min), and halted by adding a 5 μL reaction aliquot to 100 μL quenching solution (10% charcoal, 0.5% HCl). 50 μL of 200 mM NaPPi in 1.5 N HCl was then added to each quenched reaction to decrease nonspecific binding of pyrophosphate to the charcoal. Each quenched reaction was then filtered through Whatman filter paper (number 3), previously washed with washing solution (200 mM NaPPi in 1 N HCl) using a 96-well BIO-DOT® apparatus (BioRad). Each well of the apparatus was then washed four times with 200 μL aliquots of washing solution (by pipetting washing solution up and down at least 10 times per wash) to minimize nonspecific binding of pyrophosphate to charcoal. Each experimental well was paired with an analogous control well (no-enzyme control) that lacked enzyme; a single membrane contained time points for both α- and β^3-amino acid substrates and all no-enzyme controls. The membrane was allowed to dry and was protected with a sheet of Microseal B adhesive seals (Biorad) prior to exposure to a BAS Storage Phosphor screen. Screens were imaged on a Typhoon 9500FLA biomolecule imager and the signal intensity of each dot was quantified using ImageJ to determine the relative amount of [^32P]-ATP formed as a function of time (Ctime). Each raw value were corrected by subtracting the intensity of the dot corresponding to the appropriate no-enzyme control (Cblank) and the resulting corrected values of Ccorr (representing the relative amounts of ^32P-ATP formed) were plotted as a function of time to determine values of relative ^32P-ATP formed per minute. Those values were divided by the concentration of enzyme used, and the data was plotted as relative specific activity (^32P-ATP formed min^−1×μM^−1 enzyme) and fitted using Prism by performing nonlinear regression using the least squares method and Equation 1 to obtain RSA (relative specific activity) and KM values (Equation 1 and Table 2).
In Equation 1, v is the apparent relative specific activity (relative ^32P-ATP formed per minute) obtained at each substrate concentration divided by the enzyme concentration, RSA is the relative specific activity, S is the concentration of substrate, and KM is the Michaelis-Menten constant.

[5] = substrate: N[C@@H](Cc1ccccc1)C(=O)O; experiment: Aminoacylation of 32P-tRNA with α- and β3-amino acids; format: biochemical, E. coli; settings: other: aminoacylation, PheRS

B1: E. coli MetRS (Escherichia coli K-12) (protein)
chain: MTQVAKKILVTCALPYANGSIHLGHMLEHIQADVWVRYQRMRGHEVNFICADDAHGTPIMLKAQQLGITPEQMIGEMSQEHQTDFAGFNISYDNYHSTHSEENRQLSELIYSRLKENGFIKNRTISQLYDPEKGMFLPDRFVKGTCPKCKSPDQYGDNCEVCGATYSPTELIEPKSVVSGATPVMRDSEHFFFDLPSFSEMLQAWTRSGALQEQVANKMQEWFESGLQQWDISRDAPYFGFEIPNAPGKYFYVWLDAPIGYMGSFKNLCDKRGDSVSFDEYWKKDSTAELYHFIGKDIVYFHSLFWPAMLEGSNFRKPSNLFVHGYVTVNGAKMSKSRGTFIKASTWLNHFDADSLRYYYTAKLSSRIDDIDLNLEDFVQRVNADIVNKVVNLASRNAGFINKRFDGVLASELADPQLYKTFTDAAEVIGEAWESREFGKAVREIMALADLANRYVDEQAPWVVAKQEGRDADLQAICSMGINLFRVLMTYLKPVLPKLTERAEAFLNTELTWDGIQQPLLGHKVNPFKALYNRIDMRQVEALVEASKEEVKAAAAPVTGPLADDPIQETITFDDFAKVDLRVALIENAEFVEGSDKLLRLTLDLGGEKRNVFSGIRSAYPDPQALIGRHTIMVANLAPRKMRFGISEGMVMAAGPGGKDIFLLSPDAGAKPGHQVK
Km ([1]; other: adenylation, pH 7.0, 25.0 °C): 23.4 ± 8.0 µM
Km ([1]; other: aminoacylation): 243.4 ± 55.7 µM
kcat ([1]; other: aminoacylation): 0.0233 s⁻¹
kcat/Km ([1]; other: aminoacylation): 100 M⁻¹ s⁻¹

B2: E. coli TyrRS (Escherichia coli K-12) (protein)
chain: MASSNLIKQLQERGLVAQVTDEEALAERLAQGPIALYCGFDPTADSLHLGHLVPLLCLKRFQQAGHKPVALVGGATGLIGDPSFKAAERKLNTEETVQEWVDKIRKQVAPFLDFDCGENSAIAANNYDWFGNMNVLTFLRDIGKHFSVNQMINKEAVKQRLNREDQGISFTEFSYNLLQGYDFACLNKQYGVVLQIGGSDQWGNITSGIDLTRRLHQNQVFGLTVPLITKADGTKFGKTEGGAVWLDPKKTSPYKFYQFWINTADADVYRFLKFFTFMSIEEINALEEEDKNSGKAPRAQYVLAEQVTRLVHGEEGLQAAKRITECLFSGSLSALSEADFEQLAQDGVPMVEMEKGADLMQALVDSELQPSRGQARKTIASNAITINGEKQSDPEYFFKEEDRLFGRFTLLRRGKKNYCLICWK
notes: made in house; host or cells: E. coli BL21(DE3)
Km [2]: 21.4 ± 6.9 µM
kcat [2]: 0.0203 ± 0.00183 s⁻¹
kcat/Km [2]: 1000 ± 333 M⁻¹ s⁻¹
Km [3]: 12.4 ± 4.8 µM
kcat [3]: 1.18 ± 0.128 s⁻¹
kcat/Km [3]: 95000 ± 38300 M⁻¹ s⁻¹

B3: E. coli PheRS (Escherichia coli K-12) (protein)
chain: MSHLAELVASAKAAISQASDVAALDNVRVEYLGKKGHLTLQMTTLRELPPEERPAAGAVINEAKEQVQQALNARKAELESAALNARLAAETIDVSLPGRRIENGGLHPVTRTIDRIESFFGELGFTVATGPEIEDDYHNFDALNIPGHHPARADHDTFWFDTTRLLRTQTSGVQIRTMKAQQPPIRIIAPGRVYRNDYDQTHTPMFHQMEGLIVDTNISFTNLKGTLHDFLRNFFEEDLQIRFRPSYFPFTEPSAEVDVMGKNGKWLEVLGCGMVHPNVLRNVGIDPEVYSGFAFGMGMERLTMLRYGVTDLRSFFENDLRFLKQFK
notes: as for B2
Km [4]: 52.8 ± 25.8 µM
Km [5]: 200.4 ± 78.8 µM
